Measurements from patent publication US20140112915A1 (Novartis, published 2014).
Like-named read-outs stand apart in the source and are kept apart here.

T1: Recombinant cynomolgus IL-18 (cynomolgus monkey, UniProt Q14116 37-193 (human entry))
T1 chain: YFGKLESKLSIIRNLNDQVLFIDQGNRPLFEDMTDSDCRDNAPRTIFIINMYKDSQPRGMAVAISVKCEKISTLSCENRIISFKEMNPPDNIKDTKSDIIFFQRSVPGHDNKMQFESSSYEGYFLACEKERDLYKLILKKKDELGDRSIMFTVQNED

T2: Recombinant human IL-18 (human, UniProt Q14116 37-193)
T2 sequence: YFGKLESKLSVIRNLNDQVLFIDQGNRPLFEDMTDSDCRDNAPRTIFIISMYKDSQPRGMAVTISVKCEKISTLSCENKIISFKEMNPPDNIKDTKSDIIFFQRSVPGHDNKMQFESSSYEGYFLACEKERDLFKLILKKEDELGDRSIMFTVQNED

T3: Native human IL-18 (human, UniProt Q14116 37-193)
T3 sequence: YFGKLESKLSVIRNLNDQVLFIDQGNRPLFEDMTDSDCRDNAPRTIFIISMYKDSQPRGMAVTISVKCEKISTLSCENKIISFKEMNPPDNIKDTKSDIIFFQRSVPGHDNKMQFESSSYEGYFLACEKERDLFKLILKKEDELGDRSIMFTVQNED


Experiments:
Experiment in all cases: cell-based or functional assay
[1] = biological target: T1, Recombinant cynomolgus IL-18
[2] = biological target: T2, Recombinant human IL-18
[3] = biological target: T3, Native human IL-18
[4] = biological target: T2, Recombinant human IL-18; remark: listed apart in the source
[5] = biological target: T3, Native human IL-18; remark: listed apart in the source
[6] = biological target: T2, Recombinant human IL-18; remark: listed apart in the source
[7] = biological target: T3, Native human IL-18; remark: listed apart in the source

Row | Binder | IC50, inhibition of IFN-γ release, KG-1 cells, Cyno IL-18 (0.2 nM) [1] [nM] | IC50, inhibition of IFN-γ release, KG-1 cells, Hu IL-18 (0.5 nM) [2] [nM] | IC50, inhibition of IFN-γ release, PBMC, Native IL-18 (LPS/IL-12) [3] [nM] | IC50, inhibition of IFN-γ release, human whole blood, recombinant human IL-18 (7 nM) [4] [nM] | IC50, inhibition of IFN-γ release, human whole blood, LPS/IL-12 (native IL-18) [5] [nM] | IC50, inhibition of IFN-γ release, KG-1 cells, Cyno IL-18 [1] [nM] | IC50, inhibition of IFN-γ release, KG-1 cells, Hu IL-18 (1 nM) [2] [nM] | IC50, inhibition of IFN-γ release, PBMC, Hu IL-18 (recombinant) [2] [nM] | IC50, inhibition of IFN-γ release, KG-1 cells, Hu IL-18 (1 nM) [6] [nM] | IC50, inhibition of IFN-γ release, PBMC, Native IL-18 (LPS/IL-12) [7] [nM]
1 | MOR13342 (antibody, human IgG1, kappa, L234A L235A, V domains shown) VH: QVQLVQSGAEVKKPGSSVKVSCKASGGTFSTFSISWVRQAPGQGLEWMGGIIPIFGTANYAQKFQGRVTITADESTSTAYMELSSLRSEDTAVYYCARGGYGGYYYFDYWGQGTLVTVSS VL: DIQMTQSPSSLSASVGDRVTITCRASQSISNRLNWYQQKPGKAPKLLIYKGSTLQSGVPSRFSGSGSGTDFTLTISSLQPEDFATYYCQQHYVWSTTFGQGTKVEIKR | 2.9 | 0.11 | 0.5 | 6.6 | 21.5 |  |  |  |  | 
2 | MOR13347 (antibody, human IgG1, kappa, L234A L235A, V domains shown) VH: QVQLVQSGAEVKKPGSSVKVSCKASGGTFSTFSISWVRQAPGQGLEWMGGIIPIFGTANYAQKFQGRVTITADESTSTAYMELSSLRSEDTAVYYCARGGYGGYYYFDYWGQGTLVTVSS VL: DIQMTQSPSSLSASVGDRVTITCRASQSISNRLNWYQQKPGKAPKLLIYKGSTLQSGVPSRFSGSGSGTDFTLTISSLQPEDFATYYCQQHYQWLTTFGQGTKVEIKR | 2.8 | 0.12 | 0.5 | 3.5 | 8.3 |  |  |  |  | 
3 | Recombinant human IL-18 Binding Protein-IgG1 Fc (Fc fusion, UniProt O95998 31-194, looked up, not shown: a dimerising Fc or GST) TPVSQTTTAATASVRSTKDPCPSQPPVFPAAKQCPALEVTWPEVEVPLNGTLSLSCVACSRFPNFSILYWLGNGSFIEHLPGRLWEGSTSRERGSTGTQLCKALVLEQLTPALHSTNFSCVLVDPEQVVQRHVVLAQLWAGLRATLPPTQEALPSSHSSPQQQG |  |  | 0.17 | 5.7 | 12.1 | 0.4 | 0.3 | 1 |  | 
4 | MOR10579 (antibody, human IgG1, lambda, L234A L235A, V domains shown) VH: EVQLVQSGAEVKKPGSSVKVSCKASGGTFNSYAISWVRQAPGQGLEWMGWINPFYIGETFYAQKFQGRVTITADESTSTAYMELSSLRSEDTAVYYCARAAYHPLVFDNWGQGTLVTVSS VL: QSVLTQPPSASGTPGQRVTISCSGSSSNIGNHYVNWYQQLPGTAPKLLIYRNNHRPSGVPDRFSGSKSGTSASLAISGLQSEDEADYYCQSWDYSGFSTVFGGGTKLTVLG |  |  | 0.3 | 5.6 | 16.7 | 9.8 | 0.8 | 1.9 |  | 
5 | MOR9464_N30Q (antibody, human IgG1, lambda, L234A L235A, V domains shown) VH: EVQLVQSGAEVKKPGSSVKVSCKASGGTFQSYAISWVRQAPGQGLEWMGNIIPMTGQTYYAQKFQGRVTITADESTSTAYMELSSLRSEDTAVYYCARAAYHPLVFDNWGQGTLVTVSS VL: DIVLTQPPSVSGAPGQRVTISCSGSSSNIGNHYVNWYQQLPGTAPKLLIYRNNHRPSGVPDRFSGSKSGTSASLAITGLQSEDEADYYCQSWDYSGFSTVFGGGTKLTVLG |  |  |  | 8.1 | 13.4 |  |  |  | 0.22 | 0.07
6 | MOR10222 (antibody, human IgG1, lambda, L234A L235A, V domains shown) VH: EVQLVQSGAEVKKPGSSVKVSCKASGGTFNSYAISWVRQAPGQGLEWMGNIIPMTGQTYYAQKFQGRVTITADESTSTAYMELSSLRSEDTAVYYCARAAYHPLVFDNWGQGTLVTVSS VL: QSVLTQPPSASGTPGQRVTISCSGSSSNIGNHYVNWYQQLPGTAPKLLIYRNNHRPSGVPDRFSGSKSGTSASLAISGLQSEDEADYYCQSWDYSGFSTVFGGGTKLTVLG |  |  | 0.22 | 4.7 | 21.6 | 6.6 | 0.7 | 2.3 |  | 
7 | MOR9464_N30T (antibody, human IgG1, lambda, L234A L235A, V domains shown) VH: EVQLVQSGAEVKKPGSSVKVSCKASGGTFTSYAISWVRQAPGQGLEWMGNIIPMTGQTYYAQKFQGRVTITADESTSTAYMELSSLRSEDTAVYYCARAAYHPLVFDNWGQGTLVTVSS VL: DIVLTQPPSVSGAPGQRVTISCSGSSSNIGNHYVNWYQQLPGTAPKLLIYRNNHRPSGVPDRFSGSKSGTSASLAITGLQSEDEADYYCQSWDYSGFSTVFGGGTKLTVLG |  |  |  | 12.5 | 20.8 |  |  |  | 0.31 | 0.19
8 | MOR10222_E1Q_N30S_M54Y (antibody, human IgG1, lambda, L234A L235A, V domains shown) VH: QVQLVQSGAEVKKPGSSVKVSCKASGGTFSSYAISWVRQAPGQGLEWMGNIIPYTGQTYYAQKFQGRVTITADESTSTAYMELSSLRSEDTAVYYCARAAYHPLVFDNWGQGTLVTVSS VL: QSVLTQPPSASGTPGQRVTISCSGSSSNIGNHYVNWYQQLPGTAPKLLIYRNNHRPSGVPDRFSGSKSGTSASLAISGLQSEDEADYYCQSWDYSGFSTVFGGGTKLTVLG |  |  |  | 34.3 | 18.8 |  |  |  | 4.8 | 0.09
9 | MOR9464_N30G (antibody, human IgG1, lambda, L234A L235A, V domains shown) VH: EVQLVQSGAEVKKPGSSVKVSCKASGGTFGSYAISWVRQAPGQGLEWMGNIIPMTGQTYYAQKFQGRVTITADESTSTAYMELSSLRSEDTAVYYCARAAYHPLVFDNWGQGTLVTVSS VL: DIVLTQPPSVSGAPGQRVTISCSGSSSNIGNHYVNWYQQLPGTAPKLLIYRNNHRPSGVPDRFSGSKSGTSASLAITGLQSEDEADYYCQSWDYSGFSTVFGGGTKLTVLG |  |  |  | 25.1 | 15.1 |  |  |  | 0.54 | 0.11
10 | MOR10222_E1Q_N30S_M54N (antibody, human IgG1, lambda, L234A L235A, V domains shown) VH: QVQLVQSGAEVKKPGSSVKVSCKASGGTFSSYAISWVRQAPGQGLEWMGNIIPNTGQTYYAQKFQGRVTITADESTSTAYMELSSLRSEDTAVYYCARAAYHPLVFDNWGQGTLVTVSS VL: QSVLTQPPSASGTPGQRVTISCSGSSSNIGNHYVNWYQQLPGTAPKLLIYRNNHRPSGVPDRFSGSKSGTSASLAISGLQSEDEADYYCQSWDYSGFSTVFGGGTKLTVLG |  |  |  | 46.5 | 16.1 |  |  |  | 5.2 | 0.03
11 | MOR9464_N30H (antibody, human IgG1, lambda, L234A L235A, V domains shown) VH: EVQLVQSGAEVKKPGSSVKVSCKASGGTFHSYAISWVRQAPGQGLEWMGNIIPMTGQTYYAQKFQGRVTITADESTSTAYMELSSLRSEDTAVYYCARAAYHPLVFDNWGQGTLVTVSS VL: DIVLTQPPSVSGAPGQRVTISCSGSSSNIGNHYVNWYQQLPGTAPKLLIYRNNHRPSGVPDRFSGSKSGTSASLAITGLQSEDEADYYCQSWDYSGFSTVFGGGTKLTVLG |  |  |  | 11.9 | 23 |  |  |  | 0.23 | 0.1
12 | MOR9464_N30E (antibody, human IgG1, lambda, L234A L235A, V domains shown) VH: EVQLVQSGAEVKKPGSSVKVSCKASGGTFESYAISWVRQAPGQGLEWMGNIIPMTGQTYYAQKFQGRVTITADESTSTAYMELSSLRSEDTAVYYCARAAYHPLVFDNWGQGTLVTVSS VL: DIVLTQPPSVSGAPGQRVTISCSGSSSNIGNHYVNWYQQLPGTAPKLLIYRNNHRPSGVPDRFSGSKSGTSASLAITGLQSEDEADYYCQSWDYSGFSTVFGGGTKLTVLG |  |  |  | 12.9 | 19.2 |  |  |  | 0.49 | 0.13
13 | MOR10222_E1Q_N30S (antibody, human IgG1, lambda, L234A L235A, V domains shown) VH: QVQLVQSGAEVKKPGSSVKVSCKASGGTFSSYAISWVRQAPGQGLEWMGNIIPMTGQTYYAQKFQGRVTITADESTSTAYMELSSLRSEDTAVYYCARAAYHPLVFDNWGQGTLVTVSS VL: QSVLTQPPSASGTPGQRVTISCSGSSSNIGNHYVNWYQQLPGTAPKLLIYRNNHRPSGVPDRFSGSKSGTSASLAISGLQSEDEADYYCQSWDYSGFSTVFGGGTKLTVLG |  |  |  | 58.4 | 16.9 |  |  |  | 3.3 | 0.05
